The results in this text go back to patent publication US20090081197A1, “Methods for Selection of Melanocortin Receptor-Specific Agents for Treatment of Obesity” (Palatin Technologies, Inc., priority 2007, published 2009).

In test [1] the target is human melanocortin 5 receptor (human) (UniProt P33032). Nature of the test: radioligand competition, [I125]-NDP-α-MSH, hMC5-R membranes. A general note: In a radioligand displacement assay an active substance lowers the binding of a labelled ligand.
Test [2] has the same target. Nature of the test: radioligand competition, [I125]-NDP-α-MSH, hMC5-R membranes, 1 µM compound.
Test [3] concerns the target human MC1-R (human) (UniProt Q01726). In words: radioligand competition, NDP-α-MSH, human MC1-R, normal system.
The target of test [4] is human melanocortin 4 receptor (human) (UniProt P32245). In words: radioligand competition, [I125]-NDP-α-MSH, hMC4-R membranes.
Sequence of human melanocortin 4 receptor (human) (P32245 whole entry): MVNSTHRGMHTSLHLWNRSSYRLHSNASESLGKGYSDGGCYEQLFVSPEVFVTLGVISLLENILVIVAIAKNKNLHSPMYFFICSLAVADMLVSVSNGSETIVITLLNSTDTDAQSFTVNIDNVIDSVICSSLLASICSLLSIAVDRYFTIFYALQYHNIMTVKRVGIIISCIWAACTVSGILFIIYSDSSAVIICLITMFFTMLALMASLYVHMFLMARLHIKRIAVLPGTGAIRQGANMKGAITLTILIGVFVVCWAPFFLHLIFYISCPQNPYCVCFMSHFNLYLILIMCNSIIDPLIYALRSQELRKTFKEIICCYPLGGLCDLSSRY
For test [5], the target named is MC1-R of B-16 mouse melanoma cells (mouse) (UniProt Q01727). In words: radioligand competition, [I125]-NDP-α-MSH, B-16 membranes, 1 µM compound.
Sequence of MC1-R of B-16 mouse melanoma cells (mouse) (Q01727 whole entry): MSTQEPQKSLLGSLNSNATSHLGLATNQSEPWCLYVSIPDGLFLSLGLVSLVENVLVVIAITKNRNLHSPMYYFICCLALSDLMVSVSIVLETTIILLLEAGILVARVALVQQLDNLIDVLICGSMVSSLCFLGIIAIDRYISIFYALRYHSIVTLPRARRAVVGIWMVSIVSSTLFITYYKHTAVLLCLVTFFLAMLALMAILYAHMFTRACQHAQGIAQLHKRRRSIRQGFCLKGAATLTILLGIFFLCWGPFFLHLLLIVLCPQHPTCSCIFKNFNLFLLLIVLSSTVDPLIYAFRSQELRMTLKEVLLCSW
Test [6] addresses human melanocortin 4 receptor (human) (UniProt P32245). Nature of the test: radioligand competition, [I125]-NDP-α-MSH, hMC4-R membranes, 1 µM compound.
For test [7] the target is unchanged. In words: cell-based or functional assay.
Test [8] concerns the target human melanocortin 3 receptor (human) (UniProt P41968). In words: radioligand competition, [I125]-NDP-α-MSH, hMC3-R membranes, 1 µM compound.
Test [9] has the same target. Nature of the test: radioligand competition, [I125]-NDP-α-MSH, hMC3-R membranes.
Test [10] deals with MC1-R of B-16 mouse melanoma cells (mouse) (UniProt Q01727). In words: radioligand competition, [I125]-NDP-α-MSH, B-16 membranes.

Sequence of human melanocortin 3 receptor (human) (P41968 whole entry): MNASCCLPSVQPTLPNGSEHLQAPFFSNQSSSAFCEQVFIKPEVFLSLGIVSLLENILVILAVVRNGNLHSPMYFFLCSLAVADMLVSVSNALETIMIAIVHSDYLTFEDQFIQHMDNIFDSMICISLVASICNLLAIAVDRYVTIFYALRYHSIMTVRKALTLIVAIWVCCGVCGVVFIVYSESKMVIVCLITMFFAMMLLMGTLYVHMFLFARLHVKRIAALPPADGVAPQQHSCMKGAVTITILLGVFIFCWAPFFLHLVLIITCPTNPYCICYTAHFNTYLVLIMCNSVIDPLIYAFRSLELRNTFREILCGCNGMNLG
Sequence of human melanocortin 5 receptor (human) (P33032 whole entry): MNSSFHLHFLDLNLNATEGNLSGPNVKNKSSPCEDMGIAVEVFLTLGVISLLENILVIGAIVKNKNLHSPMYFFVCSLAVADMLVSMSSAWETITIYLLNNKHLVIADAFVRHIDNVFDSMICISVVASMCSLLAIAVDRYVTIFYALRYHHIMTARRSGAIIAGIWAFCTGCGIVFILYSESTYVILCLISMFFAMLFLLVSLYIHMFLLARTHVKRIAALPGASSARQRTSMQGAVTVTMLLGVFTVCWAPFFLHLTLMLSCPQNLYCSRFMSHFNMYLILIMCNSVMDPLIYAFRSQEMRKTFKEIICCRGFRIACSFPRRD
Sequence of human MC1-R (human) (Q01726 whole entry): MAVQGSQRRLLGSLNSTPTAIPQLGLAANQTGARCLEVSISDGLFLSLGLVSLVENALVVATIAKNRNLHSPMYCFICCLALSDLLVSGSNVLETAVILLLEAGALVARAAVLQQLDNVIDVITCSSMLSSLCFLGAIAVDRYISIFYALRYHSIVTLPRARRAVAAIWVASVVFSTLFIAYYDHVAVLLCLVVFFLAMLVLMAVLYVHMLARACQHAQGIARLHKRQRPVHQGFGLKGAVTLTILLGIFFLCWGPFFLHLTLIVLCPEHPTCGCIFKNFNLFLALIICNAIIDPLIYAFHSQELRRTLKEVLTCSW

B1: Ac-Nle-cyclo(Asp-His-D-Nal 2-Arg-Nal 2-Lys)-OH (peptide)
peptide: XDHXRXK
modifications: N-terminal acetyl; Nle at 1 (X); D-Nal 2 at 4 (X); Nal 2 at 6 (X); cyclo(Asp 2 to Lys 7); free C-terminal acid
As to B1, the Ki in [1] stood at 0.2 nM; in [3] it was 0.25 nM; in test [4], 0.02 nM; in [9], 0.3 nM; in [10] it was 0.2 nM. For the same molecule, the Inhibition at 1 µM (NDP-α-MSH) in test [2] was 100%; in [5], 102%; in test [6], 100%; in [8], 98%. In test [7], this molecule returned a pA2 (antagonism of NDP-α-MSH-stimulated cAMP, Schild analysis), normal system of 8.1.

A word on the Ki: it is a measure of affinity in units of concentration, obtained from inhibition or displacement. A low value points to higher affinity. What is called Inhibition is the relative decrease from the control value, in per cent.
